Measured values reported in IntAct's records for PubMed 32296183.

B1: Golgi SNAP receptor complex member 2 (Homo sapiens), O14653 (parent)
chain: MDPLFQQTHKQVHEIQSCMGRLETADKQSVHIVENEIQASIDQIFSRLERLEILSSKEPPNKRQNARLRVDQLKYDVQHLQTALRNFQHRRHAREQQERQREELLSRTFTTNDSDTTIPMDESLQFNSSLQKVHNGMDDLILDGHNILDGLRTQRLTLKGTQKKILDIANMLGLSNTVMRLIEKRAFQDKYFMIGGMLLTCVVMFLVVQYLT
partner: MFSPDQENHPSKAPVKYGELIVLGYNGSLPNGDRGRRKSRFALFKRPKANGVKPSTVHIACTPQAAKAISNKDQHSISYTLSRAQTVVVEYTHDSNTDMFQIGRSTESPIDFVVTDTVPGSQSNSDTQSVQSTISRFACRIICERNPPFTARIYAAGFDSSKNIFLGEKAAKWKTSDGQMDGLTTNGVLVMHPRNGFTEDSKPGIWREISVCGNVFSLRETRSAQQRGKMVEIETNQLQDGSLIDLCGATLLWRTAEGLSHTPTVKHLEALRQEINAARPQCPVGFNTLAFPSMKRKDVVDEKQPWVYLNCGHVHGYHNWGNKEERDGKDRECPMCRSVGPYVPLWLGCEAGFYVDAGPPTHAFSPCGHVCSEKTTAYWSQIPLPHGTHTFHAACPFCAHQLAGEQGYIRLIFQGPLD
B2: Very-long-chain enoyl-CoA reductase (Homo sapiens), Q9NZ01 (parent)
chain: MKHYEVEILDAKTREKLCFLDKVEPHATIAEIKNLFTKTHPQWYPARQSLRLDPKGKSLKDEDVLQKLPVGTTATLYFRDLGAQISWVTVFLTEYAGPLFIYLLFYFRVPFIYGHKYDFTSSRHTVVHLACICHSFHYIKRLLETLFVHRFSHGTMPLRNIFKNCTYYWGFAAWMAYYINHPLYTPPTYGAQQVKLALAIFVICQLGNFSIHMALRDLRPAGSKTRKIPYPTKNPFTWLFLLVSCPNYTYEVGSWIGFAIMTQCLPVALFSLVGFTQMTIWAKGKHRSYLKEFRDYPPLRMPIIPFLL
partner: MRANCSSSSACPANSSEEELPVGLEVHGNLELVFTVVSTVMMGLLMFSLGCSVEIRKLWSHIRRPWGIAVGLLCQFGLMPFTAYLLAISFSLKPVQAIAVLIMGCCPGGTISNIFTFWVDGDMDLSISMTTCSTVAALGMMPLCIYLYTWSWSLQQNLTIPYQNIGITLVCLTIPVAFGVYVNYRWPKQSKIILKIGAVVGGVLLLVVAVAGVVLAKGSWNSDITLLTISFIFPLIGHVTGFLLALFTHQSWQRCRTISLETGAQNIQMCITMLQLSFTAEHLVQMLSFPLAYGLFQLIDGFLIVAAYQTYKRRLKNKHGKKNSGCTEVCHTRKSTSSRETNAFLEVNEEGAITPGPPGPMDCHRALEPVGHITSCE
B3: Catenin alpha-3 (Homo sapiens), Q9UI47-2 (parent)
chain: MSAETPITLNIDPQDLQVQTFTVEKLLEPLIIQVTTLVNCPQNPSSRKKGRSKRASVLLASVEEATWNLLDKGEKIAQEATVLKDELTASLEEVRKESEALKVSAERFTDDPCFLPKREAVVQAARALLAAVTRLLILADMIDVMCLLQHVSAFQRTFESLKNVANKSDLQKTYQKLGKELENLDYLAFKRQQDLKSPNQRDEIAGARASLKENSPLLHSICSACLEHSDVASLKASKDTVCEEIQNALNVISNASQGIQNMTTPPEPQAATLGSALDELENLIVLNPLTVTEEEIRPSLEKRLEAIISGAALLADSSCTRDLHRERIIAECNAIRQALQDLLSEYMNNAGKKERSNTLNIALDNMCKKTRDLRRQLRKAIIDHVSDSFLDTTVPLLVLIEAAKNGREKEIKEYAAIFHEHTSRLVEVANLACSMSTNEDGIKIVKIAANHLETLCPQIINAALALAARPKSQAVKNTMEMYKRTWENHIHVLTEAVDDITSIDDFLAVSGMFLFF
partner: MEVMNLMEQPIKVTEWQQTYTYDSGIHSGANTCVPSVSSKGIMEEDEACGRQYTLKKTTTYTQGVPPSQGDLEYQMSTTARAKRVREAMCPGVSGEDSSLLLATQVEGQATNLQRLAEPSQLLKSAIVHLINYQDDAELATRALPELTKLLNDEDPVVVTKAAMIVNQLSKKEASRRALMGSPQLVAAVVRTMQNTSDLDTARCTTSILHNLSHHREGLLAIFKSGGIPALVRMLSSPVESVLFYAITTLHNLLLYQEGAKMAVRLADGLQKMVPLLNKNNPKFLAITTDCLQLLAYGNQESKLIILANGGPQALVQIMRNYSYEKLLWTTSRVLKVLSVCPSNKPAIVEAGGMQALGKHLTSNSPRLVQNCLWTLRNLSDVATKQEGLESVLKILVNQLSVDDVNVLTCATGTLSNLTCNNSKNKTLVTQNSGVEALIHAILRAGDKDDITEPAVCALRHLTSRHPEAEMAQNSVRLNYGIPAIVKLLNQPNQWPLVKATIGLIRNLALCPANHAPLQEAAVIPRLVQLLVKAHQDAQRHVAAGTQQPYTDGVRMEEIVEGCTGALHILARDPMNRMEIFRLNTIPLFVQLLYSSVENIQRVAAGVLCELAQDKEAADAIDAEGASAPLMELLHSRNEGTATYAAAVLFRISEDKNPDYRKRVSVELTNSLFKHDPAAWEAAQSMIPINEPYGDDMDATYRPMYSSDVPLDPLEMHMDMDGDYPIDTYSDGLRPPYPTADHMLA
B4: Very-long-chain enoyl-CoA reductase (Homo sapiens), Q9NZ01 (parent)
chain: B2 chain
partner: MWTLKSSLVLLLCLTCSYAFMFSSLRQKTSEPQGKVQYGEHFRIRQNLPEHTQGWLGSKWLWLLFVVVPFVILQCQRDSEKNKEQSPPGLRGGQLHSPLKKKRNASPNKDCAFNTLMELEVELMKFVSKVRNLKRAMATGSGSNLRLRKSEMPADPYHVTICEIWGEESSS
B5: Catenin alpha-3 (Homo sapiens), Q9UI47-2 (parent)
chain: B3 chain
partner: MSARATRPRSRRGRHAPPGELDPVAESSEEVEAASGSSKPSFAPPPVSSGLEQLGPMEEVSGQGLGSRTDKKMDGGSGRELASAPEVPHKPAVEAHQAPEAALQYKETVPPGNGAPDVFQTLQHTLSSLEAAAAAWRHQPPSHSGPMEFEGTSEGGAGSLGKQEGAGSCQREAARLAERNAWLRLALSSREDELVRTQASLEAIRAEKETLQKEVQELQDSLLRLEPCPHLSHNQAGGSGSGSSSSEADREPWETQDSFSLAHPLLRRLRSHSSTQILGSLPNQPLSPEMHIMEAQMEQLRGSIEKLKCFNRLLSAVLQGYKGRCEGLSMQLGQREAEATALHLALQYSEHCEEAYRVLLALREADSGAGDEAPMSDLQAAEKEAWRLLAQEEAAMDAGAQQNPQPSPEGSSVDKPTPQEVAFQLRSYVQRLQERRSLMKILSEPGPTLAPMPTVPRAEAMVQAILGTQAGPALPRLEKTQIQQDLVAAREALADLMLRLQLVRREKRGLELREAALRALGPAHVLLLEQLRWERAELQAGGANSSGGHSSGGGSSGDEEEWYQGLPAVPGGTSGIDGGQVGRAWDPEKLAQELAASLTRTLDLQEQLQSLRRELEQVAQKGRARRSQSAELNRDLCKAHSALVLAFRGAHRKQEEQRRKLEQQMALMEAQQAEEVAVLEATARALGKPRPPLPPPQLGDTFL
B6: Ceroid-lipofuscinosis neuronal protein 6 (Homo sapiens), Q9NWW5 (parent)
chain: MEATRRRQHLGATGGPGAQLGASFLQARHGSVSADEAARTAPFHLDLWFYFTLQNWVLDFGRPIAMLVFPLEWFPLNKPSVGDYFHMAYNVITPFLLLKLIERSPRTLPRSITYVSIIIFIMGASIHLVGDSVNHRLLFSGYQHHLSVRENPIIKNLKPETLIDSFELLYYYDEYLGHCMWYIPFFLILFMYFSGCFTASKAESLIPGPALLLVAPSGLYYWYLVTEGQIFILFIFTFFAMLALVLHQKRKRLFLDSNGLFLFSSFALTLLLVALWVAWLWNDPVLRKKYPGVIYVPEPWAFYTLHVSSRH

Variants of: B1
Settings: with peli1_human PELI1, Q96FA3

Variant | effect of a mutation on the interaction
G144W | disrupting interaction strength

Variants of: B2
Settings: with soat_human SLC10A6, Q3KNW5

Variant | effect of a mutation on the interaction
P182L | with no effect

Variants of: B3
Settings: with plak_human JUP

Variant | effect of a mutation on the interaction
V94D | disrupting interaction strength

Variants of: B4
Settings: with FAM209A

Variant | effect of a mutation on the interaction
P182L | disrupting interaction strength

Variants of: B5
Settings: with usbp1_human USHBP1, Q8N6Y0

Variant | effect of a mutation on the interaction
V94D | disrupting interaction strength

Variants of: B6
Settings: with stx1a_human STX1A

Variant | effect of a mutation on the interaction
G123D | with no effect
R6T | with no effect
L47F | with no effect

Variants of: B6
Settings: with ar13b_human ARL13B

Variant | effect of a mutation on the interaction
G123D | with no effect
R6T | with no effect
L47F | with no effect

Variants of: B6
Settings: with cxa8_human GJA8, P48165
Sequence of cxa8_human GJA8, P48165 (P48165 whole entry): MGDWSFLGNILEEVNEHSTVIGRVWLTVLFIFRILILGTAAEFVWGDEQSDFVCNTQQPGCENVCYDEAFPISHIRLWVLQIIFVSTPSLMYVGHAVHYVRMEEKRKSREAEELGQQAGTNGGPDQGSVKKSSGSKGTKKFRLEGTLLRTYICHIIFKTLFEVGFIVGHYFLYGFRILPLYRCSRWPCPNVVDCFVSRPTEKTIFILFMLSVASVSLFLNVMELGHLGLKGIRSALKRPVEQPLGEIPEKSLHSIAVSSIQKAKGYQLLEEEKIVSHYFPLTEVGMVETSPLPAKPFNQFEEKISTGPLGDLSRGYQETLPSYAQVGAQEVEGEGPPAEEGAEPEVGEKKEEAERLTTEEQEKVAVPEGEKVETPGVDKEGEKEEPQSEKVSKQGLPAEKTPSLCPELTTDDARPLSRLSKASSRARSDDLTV

Variant | effect of a mutation on the interaction
G123D | with no effect
R6T | with no effect

Variants of: B6
Settings: with ki2l3_human KIR2DL3, P43628
Sequence of ki2l3_human KIR2DL3, P43628 (P43628 whole entry): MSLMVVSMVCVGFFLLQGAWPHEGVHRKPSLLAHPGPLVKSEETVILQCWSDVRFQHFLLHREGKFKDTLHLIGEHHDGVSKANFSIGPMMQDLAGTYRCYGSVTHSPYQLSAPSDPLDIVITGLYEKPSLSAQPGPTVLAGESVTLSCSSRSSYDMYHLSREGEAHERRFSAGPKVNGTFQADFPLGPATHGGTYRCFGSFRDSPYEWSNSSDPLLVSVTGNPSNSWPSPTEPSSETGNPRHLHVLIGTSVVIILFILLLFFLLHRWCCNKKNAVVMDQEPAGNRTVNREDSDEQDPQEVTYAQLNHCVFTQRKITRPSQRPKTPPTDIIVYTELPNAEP

Variant | effect of a mutation on the interaction
G123D | with no effect
R6T | with no effect
L47F | with no effect

Variants of: B6
Settings: with lrc25_human LRRC25, Q8N386
Sequence of lrc25_human LRRC25, Q8N386 (Q8N386 whole entry): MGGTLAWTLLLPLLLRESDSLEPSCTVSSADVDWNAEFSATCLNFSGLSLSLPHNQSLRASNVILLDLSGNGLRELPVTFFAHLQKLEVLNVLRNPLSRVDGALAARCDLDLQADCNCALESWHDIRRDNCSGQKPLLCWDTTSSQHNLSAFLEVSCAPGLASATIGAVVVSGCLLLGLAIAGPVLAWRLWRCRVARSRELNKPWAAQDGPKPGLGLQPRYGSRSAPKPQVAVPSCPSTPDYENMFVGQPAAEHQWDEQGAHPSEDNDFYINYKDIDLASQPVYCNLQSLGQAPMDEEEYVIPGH

Variant | effect of a mutation on the interaction
G123D | with no effect
R6T | with no effect
L47F | with no effect

Variants of: B6
Settings: with tm139_human TMEM139, Q8IV31
Sequence of tm139_human TMEM139, Q8IV31 (Q8IV31 whole entry): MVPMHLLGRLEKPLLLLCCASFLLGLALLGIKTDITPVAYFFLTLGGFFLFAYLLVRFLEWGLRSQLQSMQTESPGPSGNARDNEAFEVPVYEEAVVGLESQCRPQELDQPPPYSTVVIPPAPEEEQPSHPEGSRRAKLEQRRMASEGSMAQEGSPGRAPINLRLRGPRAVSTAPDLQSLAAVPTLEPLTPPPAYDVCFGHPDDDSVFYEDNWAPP

Variant | effect of a mutation on the interaction
G123D | with no effect
R6T | with no effect
L47F | with no effect

Variants of: B6
Settings: with cd79a_human CD79A

Variant | effect of a mutation on the interaction
R6T | with no effect
L47F | with no effect
